B1: TR01H061-E22Hh/none-Hi-Kn010G3/L0215-k0 (antibody, human IgG1, kappa, L234A L235A, N297A)
heavy: QVQLVESGGGLVQPGRSLRLSCAASGFTFSNAWMHWVRQAPGKGLEWVAQIKDKSQNYATYYAESVKGRFTISRADSKNSIYLQMNSLKTEDTAVYYCRYVHYAASYGVDIWGQGTTVTVSSASTKGPSVFPLAPSSKSTSGGTAALGCLVKDYFPEPVTVSWNSGALTSGVHTFPAVLQSSGLYSLSSVVTVPSSSLGTQTYICNVNHKPSNTKVDKKVEPKSCDKTHTCPPCPAPEAAGGPSVFLFPPKPKDTLMISRTPEVTCVVVDVSHEDPEVKFNWYVDGVEVHNAKTKPREEQYASTYRVVSVLTVLHQDWLNGKEYKCKVSNKALPAPIEKTISKAKGQPREPQVYTLPPSRCELTKNQVSLSCAVKGFYPSDIAVEWESNGQPENNYKTTPPVLDSDGSFFLVSKLTVDKSRWQQGNVFSCSVMHEALHNHYTQKSLSLSPDYKDDDDK
chain: EPKSSDKTHTCPPCPAPELLGGPSVFLFPPKPKDTLMISRTPEVTCVVVDVSHEDPEVKFNWYVDGVEVHNAKTKPREEQYNSTYRVVSVLTVLHQDWLNGKEYKCKVSNKALPAPIEKTISKAKGQPREPQVCTLPPSRDELTKNQVSLWCLVKGFYPSDIAVEWESNGQPENNYKTTPPVLDSDGSFFLYSKLTVDKSRWQQGNVFSCSVMHEALHNRYTQKSLSLSP
light: DIVMTQSPLSLPVTPGEPASISCRSSQPPVHSNRNTYIHWYQQKPGQAPRLLIYKVSNRFSGVPDRFSGSGSGTDFTLKISRVEAEDVGVYYCGQGTQVPYTFGQGTKLEIKRTVAAPSVFIFPPSDEQLKSGTASVVCLLNNFYPREAKVQWKVDNALQSGNSQESVTEQDSKDSTYSLSSTLTLSKADYEKHKVYACEVTHQGLSSPVTKSFNRGEC
notes: single-arm
B2: TR01H061-E22Hh/none-Hi-Kn010G3/L0222-k0 (antibody, human IgG1, kappa, L234A L235A, N297A)
heavy: QVQLVESGGGLVQPGRSLRLSCAASGFTFSNAWMHWVRQAPGKGLEWVAQIKDKSQNYATYYAESVKGRFTISRADSKNSIYLQMNSLKTEDTAVYYCRYVHYAASYGVDIWGQGTTVTVSSASTKGPSVFPLAPSSKSTSGGTAALGCLVKDYFPEPVTVSWNSGALTSGVHTFPAVLQSSGLYSLSSVVTVPSSSLGTQTYICNVNHKPSNTKVDKKVEPKSCDKTHTCPPCPAPEAAGGPSVFLFPPKPKDTLMISRTPEVTCVVVDVSHEDPEVKFNWYVDGVEVHNAKTKPREEQYASTYRVVSVLTVLHQDWLNGKEYKCKVSNKALPAPIEKTISKAKGQPREPQVYTLPPSRCELTKNQVSLSCAVKGFYPSDIAVEWESNGQPENNYKTTPPVLDSDGSFFLVSKLTVDKSRWQQGNVFSCSVMHEALHNHYTQKSLSLSPDYKDDDDK
chain: EPKSSDKTHTCPPCPAPELLGGPSVFLFPPKPKDTLMISRTPEVTCVVVDVSHEDPEVKFNWYVDGVEVHNAKTKPREEQYNSTYRVVSVLTVLHQDWLNGKEYKCKVSNKALPAPIEKTISKAKGQPREPQVCTLPPSRDELTKNQVSLWCLVKGFYPSDIAVEWESNGQPENNYKTTPPVLDSDGSFFLYSKLTVDKSRWQQGNVFSCSVMHEALHNRYTQKSLSLSP
light: DIVMTQSPLSLPVTPGEPASISCRSSQSPVHSNRNTYIQWYQQKPGQAPRLLIYKVSNRFSGVPDRFSGSGSGTDFTLKISRVEAEDVGVYYCYQGTQVPYTFGQGTKLEIKRTVAAPSVFIFPPSDEQLKSGTASVVCLLNNFYPREAKVQWKVDNALQSGNSQESVTEQDSKDSTYSLSSTLTLSKADYEKHKVYACEVTHQGLSSPVTKSFNRGEC
notes: single-arm
B3: TR01H061-E22Hh/none-Hi-Kn010G3/L0226-k0 (antibody, human IgG1, kappa, L234A L235A, N297A)
heavy: QVQLVESGGGLVQPGRSLRLSCAASGFTFSNAWMHWVRQAPGKGLEWVAQIKDKSQNYATYYAESVKGRFTISRADSKNSIYLQMNSLKTEDTAVYYCRYVHYAASYGVDIWGQGTTVTVSSASTKGPSVFPLAPSSKSTSGGTAALGCLVKDYFPEPVTVSWNSGALTSGVHTFPAVLQSSGLYSLSSVVTVPSSSLGTQTYICNVNHKPSNTKVDKKVEPKSCDKTHTCPPCPAPEAAGGPSVFLFPPKPKDTLMISRTPEVTCVVVDVSHEDPEVKFNWYVDGVEVHNAKTKPREEQYASTYRVVSVLTVLHQDWLNGKEYKCKVSNKALPAPIEKTISKAKGQPREPQVYTLPPSRCELTKNQVSLSCAVKGFYPSDIAVEWESNGQPENNYKTTPPVLDSDGSFFLVSKLTVDKSRWQQGNVFSCSVMHEALHNHYTQKSLSLSPDYKDDDDK
chain: EPKSSDKTHTCPPCPAPELLGGPSVFLFPPKPKDTLMISRTPEVTCVVVDVSHEDPEVKFNWYVDGVEVHNAKTKPREEQYNSTYRVVSVLTVLHQDWLNGKEYKCKVSNKALPAPIEKTISKAKGQPREPQVCTLPPSRDELTKNQVSLWCLVKGFYPSDIAVEWESNGQPENNYKTTPPVLDSDGSFFLYSKLTVDKSRWQQGNVFSCSVMHEALHNRYTQKSLSLSP
light: DIVMTQSPLSLPVTPGEPASISCRSSQSPVHSNRNTYIHWYQQKPGQAPRLLIYKVSNRFSGVPDRFSGSGSGTDFTLKISRVEAEDVGVYYCIQGTQVPYTFGQGTKLEIKRTVAAPSVFIFPPSDEQLKSGTASVVCLLNNFYPREAKVQWKVDNALQSGNSQESVTEQDSKDSTYSLSSTLTLSKADYEKHKVYACEVTHQGLSSPVTKSFNRGEC
notes: single-arm
B4: TR01H062-E22Hh/none-Hi-Kn010G3/L0000-k0 (antibody, human IgG1, kappa, L234A L235A, N297A)
heavy: QVQLVESGGGLVQPGRSLRLSCAASGFTFSNAWMHWVRQAPGKGLEWVAQIKDKSQNYATYYAESVKGRFTISRADSKNSIYLQMNSLKTEDTAVYYCRYVHYAASYGVDAWGQGTTVTVSSASTKGPSVFPLAPSSKSTSGGTAALGCLVKDYFPEPVTVSWNSGALTSGVHTFPAVLQSSGLYSLSSVVTVPSSSLGTQTYICNVNHKPSNTKVDKKVEPKSCDKTHTCPPCPAPEAAGGPSVFLFPPKPKDTLMISRTPEVTCVVVDVSHEDPEVKFNWYVDGVEVHNAKTKPREEQYASTYRVVSVLTVLHQDWLNGKEYKCKVSNKALPAPIEKTISKAKGQPREPQVYTLPPSRCELTKNQVSLSCAVKGFYPSDIAVEWESNGQPENNYKTTPPVLDSDGSFFLVSKLTVDKSRWQQGNVFSCSVMHEALHNHYTQKSLSLSPDYKDDDDK
chain: EPKSSDKTHTCPPCPAPELLGGPSVFLFPPKPKDTLMISRTPEVTCVVVDVSHEDPEVKFNWYVDGVEVHNAKTKPREEQYNSTYRVVSVLTVLHQDWLNGKEYKCKVSNKALPAPIEKTISKAKGQPREPQVCTLPPSRDELTKNQVSLWCLVKGFYPSDIAVEWESNGQPENNYKTTPPVLDSDGSFFLYSKLTVDKSRWQQGNVFSCSVMHEALHNRYTQKSLSLSP
light: DIVMTQSPLSLPVTPGEPASISCRSSQSLVHSNRNTYLHWYQQKPGQAPRLLIYKVSNRFSGVPDRFSGSGSGTDFTLKISRVEAEDVGVYYCGQGTQVPYTFGQGTKLEIKRTVAAPSVFIFPPSDEQLKSGTASVVCLLNNFYPREAKVQWKVDNALQSGNSQESVTEQDSKDSTYSLSSTLTLSKADYEKHKVYACEVTHQGLSSPVTKSFNRGEC
notes: single-arm
B5: TR01H063-E22Hh/none-Hi-Kn010G3/L0000-k0 (antibody, human IgG1, kappa, L234A L235A, N297A)
heavy: QVQLVESGGGVVQPGGSLRLSCAASGFTFSNAWMHWVRQAPGKGLEWVAQIKDKSQNYATYYAESVKGRFTISRADSKNSIYLQMNSLKTEDTAVYYCRYVHYAASYGVDAWGQGTTVTVSSASTKGPSVFPLAPSSKSTSGGTAALGCLVKDYFPEPVTVSWNSGALTSGVHTFPAVLQSSGLYSLSSVVTVPSSSLGTQTYICNVNHKPSNTKVDKKVEPKSCDKTHTCPPCPAPEAAGGPSVFLFPPKPKDTLMISRTPEVTCVVVDVSHEDPEVKFNWYVDGVEVHNAKTKPREEQYASTYRVVSVLTVLHQDWLNGKEYKCKVSNKALPAPIEKTISKAKGQPREPQVYTLPPSRCELTKNQVSLSCAVKGFYPSDIAVEWESNGQPENNYKTTPPVLDSDGSFFLVSKLTVDKSRWQQGNVFSCSVMHEALHNHYTQKSLSLSPDYKDDDDK
chain: EPKSSDKTHTCPPCPAPELLGGPSVFLFPPKPKDTLMISRTPEVTCVVVDVSHEDPEVKFNWYVDGVEVHNAKTKPREEQYNSTYRVVSVLTVLHQDWLNGKEYKCKVSNKALPAPIEKTISKAKGQPREPQVCTLPPSRDELTKNQVSLWCLVKGFYPSDIAVEWESNGQPENNYKTTPPVLDSDGSFFLYSKLTVDKSRWQQGNVFSCSVMHEALHNRYTQKSLSLSP
light: DIVMTQSPLSLPVTPGEPASISCRSSQSLVHSNRNTYLHWYQQKPGQAPRLLIYKVSNRFSGVPDRFSGSGSGTDFTLKISRVEAEDVGVYYCGQGTQVPYTFGQGTKLEIKRTVAAPSVFIFPPSDEQLKSGTASVVCLLNNFYPREAKVQWKVDNALQSGNSQESVTEQDSKDSTYSLSSTLTLSKADYEKHKVYACEVTHQGLSSPVTKSFNRGEC
notes: single-arm
B6: TR01H064-E22Hh/none-Hi-Kn010G3/L0000-k0 (antibody, human IgG1, kappa, L234A L235A, N297A)
heavy: QVQLVESGGGLVQPGRSLRLSCSASGFTFSNAWMHWVRQAPGKGLEWVAQIKDKSQNYATYYAESVKGRFTISRADSKNSIYLQMNSLKTEDTAVYYCRYVHYAASYGVDAWGQGTTVTVSSASTKGPSVFPLAPSSKSTSGGTAALGCLVKDYFPEPVTVSWNSGALTSGVHTFPAVLQSSGLYSLSSVVTVPSSSLGTQTYICNVNHKPSNTKVDKKVEPKSCDKTHTCPPCPAPEAAGGPSVFLFPPKPKDTLMISRTPEVTCVVVDVSHEDPEVKFNWYVDGVEVHNAKTKPREEQYASTYRVVSVLTVLHQDWLNGKEYKCKVSNKALPAPIEKTISKAKGQPREPQVYTLPPSRCELTKNQVSLSCAVKGFYPSDIAVEWESNGQPENNYKTTPPVLDSDGSFFLVSKLTVDKSRWQQGNVFSCSVMHEALHNHYTQKSLSLSPDYKDDDDK
chain: EPKSSDKTHTCPPCPAPELLGGPSVFLFPPKPKDTLMISRTPEVTCVVVDVSHEDPEVKFNWYVDGVEVHNAKTKPREEQYNSTYRVVSVLTVLHQDWLNGKEYKCKVSNKALPAPIEKTISKAKGQPREPQVCTLPPSRDELTKNQVSLWCLVKGFYPSDIAVEWESNGQPENNYKTTPPVLDSDGSFFLYSKLTVDKSRWQQGNVFSCSVMHEALHNRYTQKSLSLSP
light: DIVMTQSPLSLPVTPGEPASISCRSSQSLVHSNRNTYLHWYQQKPGQAPRLLIYKVSNRFSGVPDRFSGSGSGTDFTLKISRVEAEDVGVYYCGQGTQVPYTFGQGTKLEIKRTVAAPSVFIFPPSDEQLKSGTASVVCLLNNFYPREAKVQWKVDNALQSGNSQESVTEQDSKDSTYSLSSTLTLSKADYEKHKVYACEVTHQGLSSPVTKSFNRGEC
notes: single-arm

What follows are binders tested against T1, soluble human CD3ε chain (human, UniProt P07766 23-126, limits assumed) (assay: SPR (Biacore)).
T1 construct: the text says soluble human CD3ε chain; also called human CD3 epsilon chain
T1 sequence (P07766 23-126 limits assumed): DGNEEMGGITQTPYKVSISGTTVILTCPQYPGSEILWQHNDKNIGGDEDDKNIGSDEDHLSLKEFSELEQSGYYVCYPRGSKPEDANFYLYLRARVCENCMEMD

Binder	Kd [nM]
B1	15.4
B2	18.8
B3	47.1
B4	31.3
B5	43.5
B6	30.7
